The target in this test is T1, latent 65 kDa heparanase (Hpa65) (UniProt Q9Y251 36-543, limits assumed).
T1 construct: Single-chain latent 65 kDa form coated on the ELISA plate; also called recombinant 65 kDa latent pro-heparanase; pro-heparanase
T1 sequence (looked up): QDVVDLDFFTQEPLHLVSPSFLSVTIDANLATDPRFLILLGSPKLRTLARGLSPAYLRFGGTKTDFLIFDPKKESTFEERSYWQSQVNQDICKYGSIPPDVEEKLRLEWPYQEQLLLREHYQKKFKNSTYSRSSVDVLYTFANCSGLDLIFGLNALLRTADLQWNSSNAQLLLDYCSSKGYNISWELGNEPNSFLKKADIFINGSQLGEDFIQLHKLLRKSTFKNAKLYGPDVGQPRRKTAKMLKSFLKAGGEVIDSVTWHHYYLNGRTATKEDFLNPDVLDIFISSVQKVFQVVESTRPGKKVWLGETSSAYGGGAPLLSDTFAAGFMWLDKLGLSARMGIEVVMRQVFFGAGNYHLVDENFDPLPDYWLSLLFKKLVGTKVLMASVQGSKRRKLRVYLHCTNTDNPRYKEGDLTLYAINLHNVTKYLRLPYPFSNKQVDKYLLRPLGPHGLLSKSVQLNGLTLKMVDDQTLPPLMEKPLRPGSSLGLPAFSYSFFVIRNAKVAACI
Briefly: ELISA, antibody titrated on plate coated with latent 65 kDa heparanase. The procedure: An ELISA method was applied to characterize the preferential recognition of heparanase by mAb A54 vs. control mouse IgG (FIG. 2A). For this purpose, microtiter 96-well plate was coated with latent 65 kDa heparanase (Hpa65). Purified (protein G Sepharose) mAb A54 or control mouse IgG were then added at the indicated concentrations and the extent of binding to the immobilized heparanase was determined by ELISA. […] Next, the purified A54 mAb was subjected SDS-PAGE (FIG. 2B) and Western blot (FIG. 2C, Secondary antibody: Goat Anti-Mouse Kappa-HRP) analyses to further characterize the purity, molecular weight and isotype of the antibody light and heavy chains. Lanes M1 and M2: Protein Marker; Lane 1: Reducing condition; Lane 2: Non-reducing condition; Lane P: Mouse IgG1, Kappa as a positive control. (Ab: antibody: Goat Anti-Mouse IgG-HRP). Briefly, mAb A54 was expressed in 293F cells applying the pcDNA3.4 expression vector and serum free (Expi293F) medium. The antibody isotype was characterized as IgG1-Kappa.
(In general: An ELISA detects its analyte on a solid surface through an enzyme-linked reagent.)

For orientation: IC50 means the concentration that gives 50% inhibition. Low readings indicate higher potency, high ones lower potency.

B1: mAb A54 (antibody, IgG1, V domains shown)
VH: QVQLQQSGAELAKPGASVRMSCKASGYTFTNYWMHWVKQRPGQGLEWIGYINPTTGYTEYNQKFKDKATLTADKSSSTAYMQLSSLTSEDSAVYYCARGGAGYDYDEDYAMDYWGQGTSVTVSS
VL: DIVLTQSPASLAVSLGQRATISCRASESVEYFGTSYMNWYQQKPGQPPKLLIYLASILESGIPARFSGSGSGTDFTLNIHPVEEEDAATYYCQQSNEDPYTFGGGTKLEIK
notes: Murine monoclonal antibody, IgG1-Kappa; Purified on protein G from hybridoma, also expressed in 293F cells; also called A54 mAb; A54 antibody
The molecule B1 came in with an IC50 of 0.45 nM.

For the origin of these results see patent US20250136719A1 (TECHNION RESEARCH AND DEVELOPMENT FOUNDATION, published 2025).
